Numbered stars: 1 amine (or outer) side, 2 acyl side, 3 side chain; on linkers, the order of the positions; unused ones are H or OH. Square brackets hold non-standard residues; d marks the D form. Side chains are listed from the residue outwards. Ends that are not written are not given here. * marks the point of attachment. C20 diacid = O=C(O)CCCCCCCCCCCCCCCCCCC(=O)*; C18 diacid = O=C(O)CCCCCCCCCCCCCCCCC(=O)*; γGlu = O=C(O)[C@H](CCC(=O)[*:2])N[*:1]; αMeF = C[C@](N)(Cc1ccccc1)C(=O)O; αMeL = CC(C)C[C@](C)(N)C(=O)O; αMeP = C[C@@]1(C(=O)O)CCCN1; cTA = not defined here; AEEA = NCCOCCOCC(=O)O; Aib = CC(C)(N)C(=O)O

This test concerns the target T1, human gastric inhibitory peptide receptor (hGIPR) (Homo sapiens, UniProt P48546).
T1 construct: expressed in transfected cells; host or cells: HEK293
T1 sequence (P48546 22-466): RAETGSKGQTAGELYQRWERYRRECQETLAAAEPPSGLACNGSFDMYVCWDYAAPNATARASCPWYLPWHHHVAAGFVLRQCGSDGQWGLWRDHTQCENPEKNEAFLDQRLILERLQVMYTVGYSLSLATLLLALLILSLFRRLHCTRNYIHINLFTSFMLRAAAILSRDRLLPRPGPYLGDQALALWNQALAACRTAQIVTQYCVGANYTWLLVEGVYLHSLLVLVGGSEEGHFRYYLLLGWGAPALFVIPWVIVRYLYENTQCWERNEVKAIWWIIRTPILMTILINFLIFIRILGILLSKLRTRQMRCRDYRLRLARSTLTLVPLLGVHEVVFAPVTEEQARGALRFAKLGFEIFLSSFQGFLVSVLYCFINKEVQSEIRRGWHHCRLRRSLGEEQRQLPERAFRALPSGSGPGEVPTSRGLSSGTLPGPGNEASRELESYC
Briefly: cAMP pharmacological functional assay in presence of 0.1% casein, hGIPR. In kind it is cell-based. The settings on record: ratio of hGIPR to hGLP1R cAMP EC50 ratios.
Take “Y-Aib-EGTFTSDYSILLDSK((2-[2-(2-Amino-ethoxy)-ethoxy]-acetyl)2-(γGlu)-CO—(CH2)18—CO2H)AQ-Aib-AFIEYLIEGGPSSGAPPPS-NH2 (Y[Aib]EGTFTSDYSILLDSK([AEEA-AEEA-γGlu-C20 diacid])AQ[Aib]AFIEYLIEGGPSSGAPPPS-NH2; N-terminus assumed; SMILES CC[C@H](C)[C@H](NC(=O)[C@H](CC(C)C)NC(=O)[C@H](Cc1ccc(O)cc1)NC(=O)[C@H](CCC(=O)O)NC(=O)[C@@H](NC(=O)[C@H](Cc1ccccc1)NC(=O)[C@H](C)NC(=O)C(C)(C)NC(=O)[C@H](CCC(N)=O)NC(=O)[C@H](C)NC(=O)[C@H](CCCCNC(=O)COCCOCCNC(=O)COCCOCCNC(=O)CC[C@H](NC(=O)CCCCCCCCCCCCCCCCCCC(=O)O)C(=O)O)NC(=O)[C@H](CO)NC(=O)[C@H](CC(=O)O)NC(=O)[C@H](CC(C)C)NC(=O)[C@H](CC(C)C)NC(=O)[C@@H](NC(=O)[C@H](CO)NC(=O)[C@H](Cc1ccc(O)cc1)NC(=O)[C@H](CC(=O)O)NC(=O)[C@H](CO)NC(=O)[C@@H](NC(=O)[C@H](Cc1ccccc1)NC(=O)[C@@H](NC(=O)CNC(=O)[C@H](CCC(=O)O)NC(=O)C(C)(C)NC(=O)[C@@H](N)Cc1ccc(O)cc1)[C@@H](C)O)[C@@H](C)O)[C@@H](C)CC)[C@@H](C)CC)C(=O)N[C@@H](CCC(=O)O)C(=O)NCC(=O)NCC(=O)N1CCC[C@H]1C(=O)N[C@@H](CO)C(=O)N[C@@H](CO)C(=O)NCC(=O)N[C@@H](C)C(=O)N1CCC[C@H]1C(=O)N1CCC[C@H]1C(=O)N1CCC[C@H]1C(=O)N[C@@H](CO)C(N)=O) [Peptide 9]”: the “[hGIPR/hGLP1R] EC50 Ratio” value amounted to 2.45.

Take “Y-Aib-EGTFTSDYSK((2-[2-(2-Amino-ethoxy)-ethoxy]-acetyl)2-(γGlu)-CO—(CH2)18—CO2H)LLDKIAQ-Aib-AFIEYLIEGGPSSGAPPPS-NH2 (Y[Aib]EGTFTSDYSK([AEEA-AEEA-γGlu-C20 diacid])LLDKIAQ[Aib]AFIEYLIEGGPSSGAPPPS-NH2; N-terminus assumed; SMILES CC[C@H](C)[C@H](NC(=O)[C@H](CCCCN)NC(=O)[C@H](CC(=O)O)NC(=O)[C@H](CC(C)C)NC(=O)[C@H](CC(C)C)NC(=O)[C@H](CCCCNC(=O)COCCOCCNC(=O)COCCOCCNC(=O)CC[C@H](NC(=O)CCCCCCCCCCCCCCCCCCC(=O)O)C(=O)O)NC(=O)[C@H](CO)NC(=O)[C@H](Cc1ccc(O)cc1)NC(=O)[C@H](CC(=O)O)NC(=O)[C@H](CO)NC(=O)[C@@H](NC(=O)[C@H](Cc1ccccc1)NC(=O)[C@@H](NC(=O)CNC(=O)[C@H](CCC(=O)O)NC(=O)C(C)(C)NC(=O)[C@@H](N)Cc1ccc(O)cc1)[C@@H](C)O)[C@@H](C)O)C(=O)N[C@@H](C)C(=O)N[C@@H](CCC(N)=O)C(=O)NC(C)(C)C(=O)N[C@@H](C)C(=O)N[C@@H](Cc1ccccc1)C(=O)N[C@H](C(=O)N[C@@H](CCC(=O)O)C(=O)N[C@@H](Cc1ccc(O)cc1)C(=O)N[C@@H](CC(C)C)C(=O)N[C@H](C(=O)N[C@@H](CCC(=O)O)C(=O)NCC(=O)NCC(=O)N1CCC[C@H]1C(=O)N[C@@H](CO)C(=O)N[C@@H](CO)C(=O)NCC(=O)N[C@@H](C)C(=O)N1CCC[C@H]1C(=O)N1CCC[C@H]1C(=O)N1CCC[C@H]1C(=O)N[C@@H](CO)C(N)=O)[C@@H](C)CC)[C@@H](C)CC) [Peptide 25]”: the “[hGIPR/hGLP1R] EC50 Ratio” value came to 3.23.

Take “Y-Aib-cTA-GT-αMeF-TSDYSI-αMeL-LDEK((2-[2-(2-Amino-ethoxy)-ethoxy]-acetyl)2-(γGlu)-CO—(CH2)18—CO2H)AQ-Aib-AFIEYLIEGGPSSGAPPPS-NH2 (Y[Aib][cTA]GT[αMeF]TSDYSI[αMeL]LDEK([AEEA-AEEA-γGlu-C20 diacid])AQ[Aib]AFIEYLIEGGPSSGAPPPS-NH2; reading uncertain; also: printed as Y-Aib-cTA-GT-αMeF-TSDYSI-αMeL-LDEK((2-[2-(2-Amino-ethoxy)-ethoxy]-acetyl)2-(γGlu)-CO—(CH2)18—CO2H)AQ-Aib-AFIEYLIEGGPSSGAPPPS-NH2) [Peptide 120]”: the “[hGIPR/hGLP1R] EC50 Ratio” value was determined as 5.24.

For the substance “Y-Pro-EGTFTSDYSILLDKK((2-[2-(2-Amino-ethoxy)-ethoxy]-acetyl)2-(γGlu)-CO—(CH2)18—CO2H)AQ-Aib-AFIEYLIEGGPSSGAPPPS-NH2 (YPEGTFTSDYSILLDKK([AEEA-AEEA-γGlu-C20 diacid])AQ[Aib]AFIEYLIEGGPSSGAPPPS-NH2; N-terminus assumed; SMILES CC[C@H](C)[C@H](NC(=O)[C@H](CC(C)C)NC(=O)[C@H](Cc1ccc(O)cc1)NC(=O)[C@H](CCC(=O)O)NC(=O)[C@@H](NC(=O)[C@H](Cc1ccccc1)NC(=O)[C@H](C)NC(=O)C(C)(C)NC(=O)[C@H](CCC(N)=O)NC(=O)[C@H](C)NC(=O)[C@H](CCCCNC(=O)COCCOCCNC(=O)COCCOCCNC(=O)CC[C@H](NC(=O)CCCCCCCCCCCCCCCCCCC(=O)O)C(=O)O)NC(=O)[C@H](CCCCN)NC(=O)[C@H](CC(=O)O)NC(=O)[C@H](CC(C)C)NC(=O)[C@H](CC(C)C)NC(=O)[C@@H](NC(=O)[C@H](CO)NC(=O)[C@H](Cc1ccc(O)cc1)NC(=O)[C@H](CC(=O)O)NC(=O)[C@H](CO)NC(=O)[C@@H](NC(=O)[C@H](Cc1ccccc1)NC(=O)[C@@H](NC(=O)CNC(=O)[C@H](CCC(=O)O)NC(=O)[C@@H]1CCCN1C(=O)[C@@H](N)Cc1ccc(O)cc1)[C@@H](C)O)[C@@H](C)O)[C@@H](C)CC)[C@@H](C)CC)C(=O)N[C@@H](CCC(=O)O)C(=O)NCC(=O)NCC(=O)N1CCC[C@H]1C(=O)N[C@@H](CO)C(=O)N[C@@H](CO)C(=O)NCC(=O)N[C@@H](C)C(=O)N1CCC[C@H]1C(=O)N1CCC[C@H]1C(=O)N1CCC[C@H]1C(=O)N[C@@H](CO)C(N)=O) [Peptide 88]”, the “[hGIPR/hGLP1R] EC50 Ratio” value is on record as 4.27.

Turning to “Y-αMePro-EGTFTSDYSILLDEK((2-[2-(2-Amino-ethoxy)-ethoxy]-acetyl)2-(γGlu)-CO—(CH2)16—CO2H)AQQAFIEYLIEGGPSSG-NH2 (Y[αMeP]EGTFTSDYSILLDEK([AEEA-AEEA-γGlu-C18 diacid])AQQAFIEYLIEGGPSSG-NH2; N-terminus assumed; SMILES CC[C@H](C)[C@H](NC(=O)[C@H](CC(C)C)NC(=O)[C@H](Cc1ccc(O)cc1)NC(=O)[C@H](CCC(=O)O)NC(=O)[C@@H](NC(=O)[C@H](Cc1ccccc1)NC(=O)[C@H](C)NC(=O)[C@H](CCC(N)=O)NC(=O)[C@H](CCC(N)=O)NC(=O)[C@H](C)NC(=O)[C@H](CCCCNC(=O)COCCOCCNC(=O)COCCOCCNC(=O)CC[C@H](NC(=O)CCCCCCCCCCCCCCCCC(=O)O)C(=O)O)NC(=O)[C@H](CCC(=O)O)NC(=O)[C@H](CC(=O)O)NC(=O)[C@H](CC(C)C)NC(=O)[C@H](CC(C)C)NC(=O)[C@@H](NC(=O)[C@H](CO)NC(=O)[C@H](Cc1ccc(O)cc1)NC(=O)[C@H](CC(=O)O)NC(=O)[C@H](CO)NC(=O)[C@@H](NC(=O)[C@H](Cc1ccccc1)NC(=O)[C@@H](NC(=O)CNC(=O)[C@H](CCC(=O)O)NC(=O)[C@]1(C)CCCN1C(=O)[C@@H](N)Cc1ccc(O)cc1)[C@@H](C)O)[C@@H](C)O)[C@@H](C)CC)[C@@H](C)CC)C(=O)N[C@@H](CCC(=O)O)C(=O)NCC(=O)NCC(=O)N1CCC[C@H]1C(=O)N[C@@H](CO)C(=O)N[C@@H](CO)C(=O)NCC(N)=O) [Peptide 197]”, the “[hGIPR/hGLP1R] EC50 Ratio” value is on record as 4.52.

The values above are taken from US12295987B2, “Method of using a GIP/GLP1 co-agonist for diabetes” (Eli Lilly and Company, priority 2018, dated 2025).
